Assay results as given in patent US20240270857A1 (CHIA TAI TIANQING PHARMACEUTICAL GROUP, published 2024).
Read-outs that look alike come from different tables or passages of the source. Blank lines part the entries; values can stand above or below the binder they belong to.

Key:
[1] = target: T1, IL-36R naturally expressed on OVCAR8 cells and on normal human epidermal keratinocytes (NHK cells) (human, UniProt Q9HB29 20-575); experiment: cell-based or functional assay
T1 sequence (looked up): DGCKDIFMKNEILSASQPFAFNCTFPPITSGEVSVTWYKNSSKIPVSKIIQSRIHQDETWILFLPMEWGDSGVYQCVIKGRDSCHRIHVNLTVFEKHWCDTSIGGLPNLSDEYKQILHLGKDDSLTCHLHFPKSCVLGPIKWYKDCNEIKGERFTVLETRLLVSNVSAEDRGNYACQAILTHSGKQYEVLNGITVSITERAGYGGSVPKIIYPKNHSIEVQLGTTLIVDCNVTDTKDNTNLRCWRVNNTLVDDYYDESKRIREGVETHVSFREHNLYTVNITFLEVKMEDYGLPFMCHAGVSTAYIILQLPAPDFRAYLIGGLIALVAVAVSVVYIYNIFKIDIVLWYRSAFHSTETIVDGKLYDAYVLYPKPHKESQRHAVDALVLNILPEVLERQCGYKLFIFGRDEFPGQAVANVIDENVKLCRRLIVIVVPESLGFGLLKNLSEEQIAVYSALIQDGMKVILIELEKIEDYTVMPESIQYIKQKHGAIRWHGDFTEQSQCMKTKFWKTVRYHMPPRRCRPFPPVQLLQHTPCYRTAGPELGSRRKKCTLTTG

[2] = target: T1, IL-36R naturally expressed on OVCAR8 …; experiment: cell-based or functional assay; remark: listed apart in the source
[3] = target: T1, IL-36R naturally expressed on OVCAR8 …; experiment: cell-based or functional assay; remark: listed apart in the source
[4] = target: T2, human IL-36R overexpressed on 293T-hIL36R-NFκB cells (human, UniProt Q9HB29 20-575); experiment: cell-based or functional assay
T2 sequence: T1 sequence (looked up)

[5] = target: T1, IL-36R naturally expressed on OVCAR8 …; experiment: cell-based or functional assay; remark: listed apart in the source
[6] = target: T1, IL-36R naturally expressed on OVCAR8 …; experiment: cell-based or functional assay; remark: listed apart in the source
[7] = target: T1, IL-36R naturally expressed on OVCAR8 …; experiment: cell-based or functional assay; remark: listed apart in the source
[8] = target: T2, human IL-36R overexpressed on …; experiment: cell-based or functional assay; remark: listed apart in the source
[9] = target: T3, cynomolgus IL-36R overexpressed on 293T-CynoIL36R-NFκB cells (cynomolgus monkey); experiment: cell-based or functional assay
T3 chain: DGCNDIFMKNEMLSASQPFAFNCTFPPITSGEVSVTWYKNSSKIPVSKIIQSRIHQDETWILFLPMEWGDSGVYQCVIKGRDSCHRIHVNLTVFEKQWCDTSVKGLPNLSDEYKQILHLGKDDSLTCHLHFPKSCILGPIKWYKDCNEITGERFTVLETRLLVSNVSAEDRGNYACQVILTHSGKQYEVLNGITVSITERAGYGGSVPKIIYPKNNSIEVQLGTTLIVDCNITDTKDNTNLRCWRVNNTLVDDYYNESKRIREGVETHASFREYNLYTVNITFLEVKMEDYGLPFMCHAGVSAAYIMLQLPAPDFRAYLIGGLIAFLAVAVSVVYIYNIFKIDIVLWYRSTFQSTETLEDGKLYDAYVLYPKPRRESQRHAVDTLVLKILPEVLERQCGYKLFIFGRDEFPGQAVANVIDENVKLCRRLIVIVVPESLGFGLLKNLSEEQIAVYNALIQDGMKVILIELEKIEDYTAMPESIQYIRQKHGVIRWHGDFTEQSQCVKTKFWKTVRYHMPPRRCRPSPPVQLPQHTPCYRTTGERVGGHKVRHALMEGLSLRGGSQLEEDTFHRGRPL

[10] = target: T4, Human IL-1Rrp2/IL-1R6 protein, His Tag (ACROBiosystems, IL2-H52H6) (human, UniProt Q9HB29 20-335); experiment: BLI (ForteBio Octet), antibody on ProA sensor, 1:1 model
T4 construct: Bought protein; the soluble protein is likely only the extracellular part; also called hIL-36R; human IL36R antigen; not shown: His tag
T4 sequence: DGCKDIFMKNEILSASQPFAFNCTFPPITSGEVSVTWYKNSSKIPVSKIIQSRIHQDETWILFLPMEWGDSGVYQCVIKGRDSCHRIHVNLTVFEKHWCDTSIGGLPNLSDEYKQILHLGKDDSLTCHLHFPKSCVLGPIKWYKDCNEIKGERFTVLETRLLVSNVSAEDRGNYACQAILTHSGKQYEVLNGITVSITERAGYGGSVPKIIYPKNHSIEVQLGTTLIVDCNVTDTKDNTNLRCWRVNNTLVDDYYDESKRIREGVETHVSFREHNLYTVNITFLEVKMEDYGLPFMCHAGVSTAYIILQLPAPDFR
Protocol: The affinity of anti-IL-36R antibodies to CynoIL36R-ECD mFc and human IL-1Rrp2/IL-IR6 protein, His Tag (ACROBiosystems, IL2-H52H6) was measured by a ForteBio molecular interaction instrument. […] And then the biosensor was used to bind CynoIL36R-ECD mFc or human IL-1Rrp2/IL-1R6 protein, His Tag which was diluted by a gradient (the initial concentration was 200 nM, 2-fold gradient dilution), the response signals were detected in real time using a Fortebio molecular interaction instrument (SARTORIUS, octet red 96e), and association and dissociation curves were obtained. After the completion of dissociation in each cycle, the biosensor was regenerated for the next capture; the procedure was repeated until the affinity of the different anti-IL-36R antibodies for IL-36R was determined. The resulting data were analyzed by Fortebio Data Analysis 11.0 software in a 1:1 (Langmuir) binding model to determine kₐ (kₒₙ) and kd (koff) values, and the dissociation constant KD was calculated by KD=kd/kₐ. The detection method essentially followed the manufacturer's recommendations, and more information could be found at www.fortebio.com.

- IC50; IL-8 production of OVCAR8 cells stimulated with hIL36γ, inhibition rate % [1]: 0.0181 nM
- IC50; IL-8 production of OVCAR8 cells stimulated with hIL36α, inhibition rate % [2]: 0.0181 nM
- IC50; IL-8 production of NHK cells stimulated with hIL36α, inhibition rate % [3]: 1.02 nM
B1: chimeric 84C4 antibody (antibody, human IgG4 S228P, kappa)
heavy: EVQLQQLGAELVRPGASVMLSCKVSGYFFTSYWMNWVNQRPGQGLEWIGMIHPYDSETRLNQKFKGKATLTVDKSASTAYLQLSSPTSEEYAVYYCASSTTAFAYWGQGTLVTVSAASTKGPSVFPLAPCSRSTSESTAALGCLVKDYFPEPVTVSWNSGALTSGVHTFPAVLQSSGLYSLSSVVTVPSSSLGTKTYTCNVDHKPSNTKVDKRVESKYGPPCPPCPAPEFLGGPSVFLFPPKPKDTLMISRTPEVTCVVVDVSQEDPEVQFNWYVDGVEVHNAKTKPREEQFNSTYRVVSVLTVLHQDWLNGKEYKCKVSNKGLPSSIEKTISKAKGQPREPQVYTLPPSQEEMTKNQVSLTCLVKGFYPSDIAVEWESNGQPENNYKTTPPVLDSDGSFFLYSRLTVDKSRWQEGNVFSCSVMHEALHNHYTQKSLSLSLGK
light: DILMTQSPSSLSASLGERVSLTCRASQDIGNALNWLQQAPDGTIKRLIYATSSLDPGVPKRFSGSRSGSDYSLTISSLASEDFVYYYCLQYASSPYTFGGGTKLEIKRTVAAPSVFIFPPSDEQLKSGTASVVCLLNNFYPREAKVQWKVDNALQSGNSQESVTEQDSKDSTYSLSSTLTLSKADYEKHKVYACEVTHQGLSSPVTKSFNRGEC
notes: Mouse variable regions on human IgG4 / kappa; also called xi84C4

- IC50; NFκB-luciferase reporter in 293T-hIL36R-NFκB cells stimulated with hIL36γ, inhibition rate % [4]: 10.5 nM
- IC50; IL-8 production of OVCAR8 cells stimulated with hIL36β, inhibition rate % [5]: 0.116 nM
- IC50; IL-8 production of OVCAR8 cells stimulated with hIL36γ, inhibition rate % [6]: 0.0555 nM
- IC50; IL-8 production of OVCAR8 cells stimulated with hIL36α, inhibition rate % [7]: 0.113 nM
- IC50; NFκB-luciferase reporter in 293T-hIL36R-NFκB cells stimulated with hIL36α, inhibition rate % [8]: 8 nM
- IC50; NFκB-luciferase reporter in 293T-CynoIL36R-NFκB cells stimulated with hIL36γ, inhibition rate % [9]: 2.38 nM
- Kd [10]: 0.736 nM
- koff [10]: 4.38e-05 s⁻¹
- kon [10]: 59600 M⁻¹ s⁻¹
B2: chimeric 72C1 antibody (antibody, human IgG4 S228P, kappa)
heavy: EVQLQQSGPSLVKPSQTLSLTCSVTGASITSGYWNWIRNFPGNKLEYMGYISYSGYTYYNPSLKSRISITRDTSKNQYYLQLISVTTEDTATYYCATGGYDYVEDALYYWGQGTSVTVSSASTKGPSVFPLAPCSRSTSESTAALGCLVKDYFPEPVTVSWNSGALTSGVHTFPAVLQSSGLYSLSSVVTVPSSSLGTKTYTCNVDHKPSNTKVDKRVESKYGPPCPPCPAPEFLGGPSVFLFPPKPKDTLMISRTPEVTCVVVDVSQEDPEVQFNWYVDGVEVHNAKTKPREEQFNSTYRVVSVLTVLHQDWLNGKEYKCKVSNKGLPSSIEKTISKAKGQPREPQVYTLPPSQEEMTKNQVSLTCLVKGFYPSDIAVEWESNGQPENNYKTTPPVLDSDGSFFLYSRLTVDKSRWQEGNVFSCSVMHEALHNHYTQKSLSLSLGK
light: EILLTQSPAIMSATLGEKVTMSCRASSNVRYMYWYQLKSGASPKLWIYLTSNLASGVPARFSGSGSGTSYSLTISSVEAEDAATYFCQQFTTSPYTFGGGTKLEIKRTVAAPSVFIFPPSDEQLKSGTASVVCLLNNFYPREAKVQWKVDNALQSGNSQESVTEQDSKDSTYSLSSTLTLSKADYEKHKVYACEVTHQGLSSPVTKSFNRGEC
notes: Mouse variable regions on human IgG4 / kappa; also called xi72C1

- IC50; IL-8 production of OVCAR8 cells stimulated with hIL36γ, inhibition rate % [1]: 0.0592 nM
- IC50; NFκB-luciferase reporter in 293T-hIL36R-NFκB cells stimulated with hIL36γ, inhibition rate % [4]: 4.74 nM
- IC50; IL-8 production of OVCAR8 cells stimulated with hIL36α, inhibition rate % [2]: 0.0927 nM
- IC50; IL-8 production of OVCAR8 cells stimulated with hIL36β, inhibition rate % [5]: 0.0755 nM
- IC50; IL-8 production of OVCAR8 cells stimulated with hIL36γ, inhibition rate % [6]: 0.0405 nM
- IC50; IL-8 production of OVCAR8 cells stimulated with hIL36α, inhibition rate % [7]: 0.0799 nM
- IC50; NFκB-luciferase reporter in 293T-hIL36R-NFκB cells stimulated with hIL36α, inhibition rate % [8]: 3.62 nM
- IC50; NFκB-luciferase reporter in 293T-CynoIL36R-NFκB cells stimulated with hIL36γ, inhibition rate % [9]: 11.8 nM
- Kd [10]: 0.245 nM
- koff [10]: 1.57e-05 s⁻¹
- kon [10]: 64100 M⁻¹ s⁻¹
- IC50; IL-8 production of NHK cells stimulated with hIL36α, inhibition rate % [3]: 0.214 nM
B3: BI655130 (antibody, human IgG1, kappa, L234A L235A)
heavy: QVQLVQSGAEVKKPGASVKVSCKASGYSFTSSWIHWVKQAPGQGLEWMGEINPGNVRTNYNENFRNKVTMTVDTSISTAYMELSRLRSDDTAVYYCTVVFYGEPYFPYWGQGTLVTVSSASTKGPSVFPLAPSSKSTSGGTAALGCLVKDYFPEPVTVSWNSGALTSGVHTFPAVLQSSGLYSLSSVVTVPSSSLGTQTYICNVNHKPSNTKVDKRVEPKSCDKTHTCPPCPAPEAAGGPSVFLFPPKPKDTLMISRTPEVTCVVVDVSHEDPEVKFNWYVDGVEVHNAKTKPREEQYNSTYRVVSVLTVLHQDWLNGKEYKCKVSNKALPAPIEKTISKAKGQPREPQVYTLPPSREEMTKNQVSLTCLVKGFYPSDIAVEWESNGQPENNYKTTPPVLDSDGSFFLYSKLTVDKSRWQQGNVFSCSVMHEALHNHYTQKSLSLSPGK
light: QIVLTQSPGTLSLSPGERATMTCTASSSVSSSYFHWYQQKPGQAPRLWIYRTSRLASGVPDRFSGSGSGTDFTLTISRLEPEDAATYYCHQFHRSPLTFGAGTKLEIKRTVAAPSVFIFPPSDEQLKSGTASVVCLLNNFYPREAKVQWKVDNALQSGNSQESVTEQDSKDSTYSLSSTLTLSKADYEKHKVYACEVTHQGLSSPVTKSFNRGEC
notes: also called Spesolimab
